{
  "source": "paper doi:10.1101/2021.03.04.433768",
  "about": "(bioRxiv, 2021)",
  "target": "HIV-1 envelop trimer (BG505 DS-SOSIP) (HIV-1 group M subtype A, isolate BG505, UniProt Q2N0S6, stabilised)",
  "data": [
    {"binder": "VHH9 row 4 (VHH9 group, Nb10-Nb13) (VHH) VHH: QVKLEESGGGSVQAGGSLRLSCTAPGFTSNSCGMAWYRQAPGKEREFVSSISTDGTTSYADSVKGRFTISKDKAKDTVYLQMNSLKPEDTAMYSCKTYGPYCYFDVWGAGTTVTVSA", "values": [
      {"measurement": "binding result", "value": "binds"}
    ]}
  ]
}
